These are literature values, as cited in PMC6615999.

pKd: −log10 of the molar value.

The data set addresses PKR (Homo sapiens) (UniProt P19525).

Turning to PKR (from UniProt P19525), the pKd is 3.30.
